The nature of test [1]: Surface-plasmon-resonance (SPR) analysis of the affinity of antibody binding to theophylline. From the text: FIG. 3 Binding profiles of the theophylline binding antibodies in SPR experiments.
To determine the affinity of specific binding of the antibody to theophylline, surface-plasmon-resonance (SPR) analyses were applied.

Test [2] can be described thus: ELISA for specific binding of the antibody to immobilized biotinylated theophylline. The conditions noted are these: biotinylated theophylline 500 ng/mL on streptavidin plates; antibody 50-3000 ng/mL; anti-huFc Fab-HRP/ABTS, absorbance 405 nm. The protocol:
To determine specific binding of the antibody by ELISA, Streptavidin coated ELISA plates were loaded with biotinylated theophylline (500 ng/mL in PBS) and incubated for 30 minutes at room temperature. After washing twice to remove unbound antigen, antibodies were added at concentrations between 50 and 3000 ng/mL (in PBS) and incubated for 30 minutes. After washing twice, bound antibody was detected with an anti-huFc Fab-HRP conjugate and ABTS substrate (with absorbance measurement at 405 nm).
For orientation: ELISA stands for enzyme-linked immunosorbent assay.

Setting [3] is: read-out: calculated affinities (KD).

In general, Kd refers to a measure of binding affinity in units of concentration.

Read-outs that look alike come from different tables or passages of the source.

B1: humanized antibody: humanized anti-theophylline antibody; VH SEQ ID NO: 12 (V71R), VL SEQ ID NO: 16 (R46L); human IgG1/kappa constant regions (antibody, V domains shown)
VH: QVQLQESGPGLVKPSQTLSLTCTVSGYSITSDYAWNWIRQHPGKGLEWIGYIRYSGHTGYNPSLKSRVTISRDTSKNQFSLKLSSVTAADTAVYYCARWVDYFDYWGQGTLVTVSS
VL: DVVMTQSPLSLPVTLGQPASISCRSSQSIVYNNRYTYLEWFQQRPGQSPRLLIYGVSNRFSGVPDRFSGSGSGTDFTLKISRVEAEDVGVYYCYQGTHAPYTFGQGTKLEIK
modifications: human IgG1/kappa constant regions; humanized VH; humanized VL
B1 had a ka in test [1] of 1.31E+05. Also, the kd in test [1] is reported as 0.002214. Further, the Kd in test [1] (read-out: KD) is 17 nM; in test [1] (setting [3]) it was 17 nM; in test [1] (unit inferred, read-out: KD), 17 nM. For the same molecule, in test [2], the “binding to theophylline immobilized on the ELISA plate” value is “binds specifically and dose dependent to theophylline”.

B2: murine antibody: murine anti-theophylline antibody, IgG1 kappa, from mouse hybridoma; VH SEQ ID NO: 04, VL SEQ ID NO: 08 (antibody, listed as Mus musculus, V domains shown)
VH: DVQLQESGPGLVKPSQSLSLTCAVTGYSITSDYAWNWIRQFPGNRLEWMGYIRYSGHTGYNPSLKSRISITRDTFKNQFFLQFNSVTTEDTATYYCARWVDYFDYWGQGTTLTVSS
VL: DVVMTQSPLSLPVSLGDQASISCRSSQSIVYNNRYTYLEWFVQKPGQSLKLLIYGVSNRFSGVPDRFSGSGSGTDFTLKISRVEAEDMGVYYCYQGTHAPYTFGGGTKLEIK
Regarding B2, the ka in test [1] was 1.12E+05. This molecule registered a kd in test [1] of 0.00228. Further, the dissociation constant (Kd) in test [1] (read-out: KD) was 20.3 nM; in test [1] (setting [3]), 20 nM; in test [1] (unit inferred, read-out: KD), 20.3 nM.

The record behind these values is US9925272B2, “Anti-theophylline antibodies and methods of use” (Hoffmann-La Roche Inc., priority 2012, dated 2018).
